Source: IntAct's records for PubMed 16582879

B1: Tyrosine-protein phosphatase non-receptor type 1 (Homo sapiens), P18031 (parent)
chain: MEMEKEFEQIDKSGSWAAIYQDIRHEASDFPCRVAKLPKNKNRNRYRDVSPFDHSRIKLHQEDNDYINASLIKMEEAQRSYILTQGPLPNTCGHFWEMVWEQKSRGVVMLNRVMEKGSLKCAQYWPQKEEKEMIFEDTNLKLTLISEDIKSYYTVRQLELENLTTQETREILHFHYTTWPDFGVPESPASFLNFLFKVRESGSLSPEHGPVVVHCSAGIGRSGTFCLADTCLLLMDKRKDPSSVDIKKVLLEMRKFRMGLIQTADQLRFSYLAVIEGAKFIMGDSSVQDQWKELSHEDLEPPPEHIPPPPRPPKRILEPHNGKCREFFPNHQWVKEETQEDKDCPIKEEKGSPLNAAPYGIESMSQDTEVRSRVVGGSLRGAQAASPAKGEPSLPEKDEDHALSYWKPFLVNMCVATVLTAGAYLCYRFLFNSNT

Variants of: B1
Conditions: with insr_human INSR

effect of a mutation on the interaction | Variant
increasing interaction | D181A
